Assay results taken from patent US7108988B2, “Methods of identifying agents for inhibiting lentivirus replication” (priority 2001, dated 2006).

Columns and labels:
[1] = biological target: T1, CyPA (Homo sapiens, UniProt P62937); assay: Surface plasmon resonance (BIAcore) binding of Vpr peptides to immobilized recombinant CyPA; conditions: 25° C.; for binding to CyPA: peptide 1 to 250 μM, immobilized recombinant CyPA
T1 construct: purchased Sigma
Procedure: Surface plasmon resonance biosensor analysis (BIAcore-Spectroscopy) was applied to analyze the molecular aspects that govern interaction of Vpr with CyPA. For the first experiment, a novel peptide comprising the first 40 residues of the Vpr protein derived from the isolate HIV-1NL4-3 was used to study the interaction with CyPA.
Surface plasmon resonance measurements were performed at 25° C. using a BIACORE 2000 (BIAcore AB, Upsala Sweden) equipped with a CM5 research-grade sensor chip. […] The peptide Vpr^1-40 was dissolved at concentrations ranging from 1 to 250 μM in a running buffer (10 mM Hepes, 150 mM NaCl, 50 μM EDTA, 0.005% Tween 20, pH 7.4) and was injected over the flow cells containing CyPA bound to the chip matrix at a flow rate of 5 μl/min. Data were collected at a rate of 2.5 Hz during the 120 s association and dissociation phase. Vpr^1-40 interactions reached equilibrium rapidly and dissociation completely within 30 seconds. Results were corrected by the RU-values of the reference cell (without CyPA) to exclude unspecific binding of Vpr to the chip matrix. The experiment was repeated at least three times with two different charges of peptide and CyPA and reproducible results were obtained.
Synthetic Vpr^1-40 and mutants carrying Pro to Asn exchanges at either amino acid positions 5, 10 and 14 (P^5,10,14 to N ) or at position 35 (P^35 to N) or at all four positions (P^5,10,14,35 to N) were purified to homogeneity, and tested for binding to immobilized recombinant CyPA using the same surface plasmon resonance biosensor system. […] Thus, among prolines at positions 5, 10, 14, and 35 of Vpr^1-40, only proline-35 is essential for binding to CyPA.

[2] = biological target: T1, CyPA; assay: Far-Western blot binding of Vpr to CyPA bound to nitrocellulose
Procedure: Investigation of full length Vpr^1-96 was not possible by BIAcore as the full length Vpr protein tends to undergo self association and protein precipitation, that all together yielded false positive binding signals. As an alternative we investigated the binding of Vpr to CyPA bound to nitrocellulose.
For the purpose of Far-Western Blot technique, purified recombinant CyPA was separated in a 15% SDS PAGE at a concentration of ˜150 ng CyPA per lane. Proteins were electro transferred onto nitrocellulose and individual strips of this CyPA-containing Western blot were blocked for 4 hours with 3% BSA in TBS. Strips were then incubated for 12 hrs at 4° C. with the peptide Vpr^1-96 at a concentration of 1 μg/ml, CyPA strips were incubated either in the absence of any detergent, or under more stringent conditions in TBS/T containing 0.5% Triton X100™ non-ionic detergent. Finally, strips were washed tree times in TBS/T for 10 minutes and bound Vpr was identified with anti-Vpr^1-96 (polyclonal antibodies raised in rabbits) followed by anti-rabbit IgG horse radish peroxidase (HRP) conjugate and enhanced chemiluminescence (ECL) staining. As a control, the CypA binding protein, HIV-1 capsid p24 was tested in parallel.

[3] = biological target: T1, CyPA; assay: In vitro CyPA/Vpr complex formation, non-reducing SDS-PAGE and Western blot; format: binding
Text: […] Proteins were separated on a 14% polyacrylamide gel in SDS (without reducing agents), by PAGE. Proteins were detected by Western blotting after transfer of the proteins from the gel to membranes. CyPA and Vpr proteins were detected using anti-Vpr and anti-CyPA antibodies (Calbiochem).

T1 sequence (P62937 whole entry): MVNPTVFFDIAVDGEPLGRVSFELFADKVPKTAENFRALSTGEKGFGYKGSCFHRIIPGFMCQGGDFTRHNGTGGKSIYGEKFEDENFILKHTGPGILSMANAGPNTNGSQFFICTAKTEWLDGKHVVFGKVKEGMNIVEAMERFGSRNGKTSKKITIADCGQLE

Substance: P^5,10,14 to N (MEQANEDQGNQRENHNEWTL; Vpr 1-20; UniProt P69725 1-20, looked up, variant P5N P10N P14N)
- binding to CyPA [1]: retained dose-dependent binding to CyPA

Substance: Pro-35 to Asn of Vpr^21-40: Vpr^21-40 with Pro-35 mutated to Asn
- binding to CyPA [1]: complete loss of CyPA binding

Substance: Vpr^1-20: very N-terminal fragment of Vpr
- binding to CyPA [1]: did not bind to CyPA

Substance: Vpr^1-40: peptide comprising the first 40 residues of the Vpr protein derived from the isolate HIV-1NL4-3
- time to complete dissociation from CyPA [1]: ≤ 30 s
- binding to CyPA [1]: concentration dependent binding to CyPA

Substance: Vpr^1-96: full length Vpr peptide
- binding to CyPA (Far-Western) ([2]; 1 μg/ml peptide, absence of detergent): binds to CyPA
- binding to CyPA (Far-Western) ([2]; presence of 0.5% TritonX100 non-ionic detergent): low affinity
- binding to CyPA (Far-Western) ([2]; presence of 0.5% TritonX100 non-ionic detergent, listed as Vpr): reduced
- complex formation with CyPA ([3]; 1 μg each, 22° C., 12 hours, no reducing agent): formation of a novel approximately 29 kDa product
- complex formation with CyPA ([3]; with reducing agent (β-mercaptoethanol)): loss of the Vpr/CyPA complex

Substance: Vpr^21-40: smaller fragment of Vpr
- binding to CyPA [1]: strong and dose-dependent binding to CyPA
